We go through 125 sequences from the supplement of paper PMC9112550, “Optimization of the antimicrobial peptide Bac7 by deep mutational scanning” (BMC Biology, 2022).
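Further: peptides expressed intracellularly from a pBAD plasmid library in pooled LB shake-flask culture, induced with 0.3% L-arabinose, DNA abundance read by NGS, three biological replicates, DESeq2 with apeglm shrinkage.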

The test system of this data set is Escherichia coli TOP10. Description: shrunken log2 fold change of peptide-encoding DNA abundance (4.5 h post-induction vs induction); higher = less antimicrobial activity (less host growth inhibition). Conditions: time post-induction: 4.5 h; library: site-saturation at positions 5, 18, 19, 20.
As to RRIRLRPPRLPRPRPRPVWSPRP, the “shrunken log2 fold change” value came to 0.0624. As to RRIRVRPPRLPRPRPRPSPEPRP, the “shrunken log2 fold change” value was -0.142. The value for RRIRCRPPRLPRPRPRPCLGPRP was -0.224; that for RRIRTRPPRLPRPRPRPPIEPRP was -0.0275.

Take RRIRQRPPRLPRPRPRPFCSPRP: the “shrunken log2 fold change” value worked out at 0.036. In the case of RRIRMRPPRLPRPRPRPFLCPRP, the “shrunken log2 fold change” value is -0.0722. The value for RRIRIRPPRLPRPRPRPNKTPRP was -0.125. The value for RRIRTRPPRLPRPRPRPQIVPRP was 0.0532.

Regarding RRIRRRPPRLPRPRPRPVMSPRP, the “shrunken log2 fold change” value was 0.042.

For the sequence RRIRWRPPRLPRPRPRPHRNPRP, the “shrunken log2 fold change” value is -0.255. The value for RRIRFRPPRLPRPRPRPTNFPRP was -0.0824; that for RRIRTRPPRLPRPRPRPVIIPRP was -0.213. Consider RRIRRRPPRLPRPRPRPYFQPRP, for which the “shrunken log2 fold change” value is -0.189. As for RRIRVRPPRLPRPRPRPVPTPRP, the figure is 0.149; as for RRIRMRPPRLPRPRPRPTYAPRP, 0.0341. The value for RRIRDRPPRLPRPRPRPACQPRP was 0.0344; that for RRIRYRPPRLPRPRPRPMTVPRP was -0.0212; that for RRIRKRPPRLPRPRPRPSPCPRP was 0.13.

As to RRIRFRPPRLPRPRPRPGWVPRP, the “shrunken log2 fold change” value was 0.176. Turning to RRIRIRPPRLPRPRPRPYYQPRP, the “shrunken log2 fold change” value is -0.296. As for RRIRTRPPRLPRPRPRPNPWPRP, the figure is 0.0694; as for RRIRRRPPRLPRPRPRPDMPPRP, -0.0169; as for RRIRMRPPRLPRPRPRPAPYPRP, 0.576. In the case of RRIRQRPPRLPRPRPRPQFWPRP, the “shrunken log2 fold change” value amounted to 0.681. For RRIRHRPPRLPRPRPRPCWRPRP, the “shrunken log2 fold change” value is 0.0476. The value for RRIRDRPPRLPRPRPRPSVRPRP was 0.0325. Turning to RRIRYRPPRLPRPRPRPTHYPRP, the “shrunken log2 fold change” value was -0.867.

On to RRIRPRPPRLPRPRPRPYKTPRP, for which the “shrunken log2 fold change” value was 0.001.

As for RRIRCRPPRLPRPRPRPRSQPRP, the “shrunken log2 fold change” value turned out to be 0.0629. The value for RRIRYRPPRLPRPRPRPDQWPRP was -0.103; that for RRIRVRPPRLPRPRPRPGIDPRP was -0.143; that for RRIRCRPPRLPRPRPRPNERPRP was 0.0333.

As to RRIRWRPPRLPRPRPRPGRAPRP, the “shrunken log2 fold change” value came out at 0.71. As to RRIRLRPPRLPRPRPRPNRGPRP, the “shrunken log2 fold change” value was -0.00212. As for RRIRHRPPRLPRPRPRPSRSPRP, the figure is -0.202; as for RRIRTRPPRLPRPRPRPYDPPRP, -0.0474; as for RRIRYRPPRLPRPRPRPCCTPRP, -0.418. The value for RRIRARPPRLPRPRPRPTMNPRP was 0.0878; that for RRIRIRPPRLPRPRPRPDVHPRP was -0.00757. The value for RRIRLRPPRLPRPRPRPYLQPRP was -0.0746; that for RRIRGRPPRLPRPRPRPWHKPRP was -0.299; that for RRIRMRPPRLPRPRPRPPEPPRP was 0.296. With RRIRVRPPRLPRPRPRPADEPRP, the “shrunken log2 fold change” value was -0.0284. In the case of RRIRARPPRLPRPRPRPMKDPRP, the “shrunken log2 fold change” value is 0.0565.

As for RRIRTRPPRLPRPRPRPRWKPRP, the “shrunken log2 fold change” value came out at 0.0709. The value for RRIRTRPPRLPRPRPRPRNPPRP was 0.000872; that for RRIRYRPPRLPRPRPRPSCEPRP was -0.586. For the sequence RRIRERPPRLPRPRPRPCWWPRP, the “shrunken log2 fold change” value was found to be 0.288.

In the case of RRIRARPPRLPRPRPRPRMEPRP, the “shrunken log2 fold change” value worked out at 0.539. The value for RRIRSRPPRLPRPRPRPRHMPRP was -0.0166; that for RRIRMRPPRLPRPRPRPITQPRP was -0.00846; that for RRIRRRPPRLPRPRPRPCNNPRP was -0.368.

Consider RRIRVRPPRLPRPRPRPDPTPRP, for which the “shrunken log2 fold change” value was determined as 0.106. In the case of RRIRPRPPRLPRPRPRPIPGPRP, the “shrunken log2 fold change” value turned out to be 0.0171. In the case of RRIRCRPPRLPRPRPRPMPSPRP, the “shrunken log2 fold change” value was found to be 2.8. The value for RRIRQRPPRLPRPRPRPSDNPRP was -0.394; that for RRIRERPPRLPRPRPRPNMKPRP was -0.6; that for RRIRFRPPRLPRPRPRPYKSPRP was -0.382.

Turning to RRIRHRPPRLPRPRPRPYQMPRP, the “shrunken log2 fold change” value was -0.113. As for RRIRKRPPRLPRPRPRPPDFPRP, the “shrunken log2 fold change” value stood at 0.12. In the case of RRIRCRPPRLPRPRPRPTYYPRP, the “shrunken log2 fold change” value is -0.758. Take RRIRDRPPRLPRPRPRPIHAPRP: the “shrunken log2 fold change” value is 0.125. As for RRIRTRPPRLPRPRPRPYCMPRP, the figure is -1.28; as for RRIRDRPPRLPRPRPRPLTVPRP, -0.102. As for RRIRLRPPRLPRPRPRPAHRPRP, the figure is 0.278; as for RRIRFRPPRLPRPRPRPYMHPRP, -0.72; as for RRIRMRPPRLPRPRPRPSVHPRP, -0.0707. As for RRIRQRPPRLPRPRPRPETNPRP, the figure is 0.0137; as for RRIRGRPPRLPRPRPRPWKGPRP, 0.22.

Consider RRIRMRPPRLPRPRPRPFSMPRP, for which the “shrunken log2 fold change” value is -0.112. As for RRIRSRPPRLPRPRPRPILEPRP, the figure is 0.0161; as for RRIRMRPPRLPRPRPRPVGEPRP, 0.141. As for RRIRCRPPRLPRPRPRPTWDPRP, the figure is 0.151. With RRIRVRPPRLPRPRPRPEIYPRP, the “shrunken log2 fold change” value is -0.348. The value for RRIRERPPRLPRPRPRPHRVPRP was 0.0121. The value for RRIRGRPPRLPRPRPRPSCCPRP was 0.722; that for RRIRDRPPRLPRPRPRPAPEPRP was 0.225; that for RRIRLRPPRLPRPRPRPAMDPRP was 0.113.

In the case of RRIRNRPPRLPRPRPRPMVTPRP, the “shrunken log2 fold change” value is -0.157. As for RRIRTRPPRLPRPRPRPQACPRP, the figure is -0.0237; as for RRIRMRPPRLPRPRPRPSFDPRP, 0.485.

Regarding RRIRCRPPRLPRPRPRPDQMPRP, the “shrunken log2 fold change” value is 0.101. On to RRIRSRPPRLPRPRPRPYETPRP, for which the “shrunken log2 fold change” value was -0.181.

As for RRIRIRPPRLPRPRPRPNSMPRP, the “shrunken log2 fold change” value is -1.23. As for RRIRARPPRLPRPRPRPHDKPRP, the figure is -0.0542; as for RRIRARPPRLPRPRPRPQIHPRP, -0.0277. As for RRIRIRPPRLPRPRPRPCKHPRP, the figure is -0.118; as for RRIRTRPPRLPRPRPRPDAWPRP, 0.285. The value for RRIRNRPPRLPRPRPRPEIWPRP was 0.0992. As for RRIRGRPPRLPRPRPRPNGLPRP, the “shrunken log2 fold change” value was 0.377. Regarding RRIRGRPPRLPRPRPRPTAKPRP, the “shrunken log2 fold change” value was found to be 1.92. With RRIRKRPPRLPRPRPRPLYYPRP, the “shrunken log2 fold change” value is -0.458. The value for RRIRVRPPRLPRPRPRPHHFPRP was -0.114. As for RRIRGRPPRLPRPRPRPGQDPRP, the figure is 0.605; as for RRIRQRPPRLPRPRPRPLCFPRP, -0.302; as for RRIRSRPPRLPRPRPRPKGQPRP, 0.0791. With RRIRDRPPRLPRPRPRPPMQPRP, the “shrunken log2 fold change” value worked out at 0.172. As for RRIRPRPPRLPRPRPRPSSYPRP, the figure is -0.197. Turning to RRIRVRPPRLPRPRPRPRDRPRP, the “shrunken log2 fold change” value stood at 0.46. As for RRIRRRPPRLPRPRPRPLNFPRP, the figure is -0.115. The value for RRIRQRPPRLPRPRPRPQVNPRP was -0.499. For RRIRYRPPRLPRPRPRPMKQPRP, the “shrunken log2 fold change” value was -0.0304.

Consider RRIRDRPPRLPRPRPRPCVHPRP, for which the “shrunken log2 fold change” value came out at 0.412.

For the sequence RRIRCRPPRLPRPRPRPSNAPRP, the “shrunken log2 fold change” value is -0.572. The value for RRIRNRPPRLPRPRPRPKVGPRP was 0.148; that for RRIRGRPPRLPRPRPRPIGGPRP was 0.0174; that for RRIRVRPPRLPRPRPRPIQSPRP was -0.177. Regarding RRIRSRPPRLPRPRPRPIPQPRP, the “shrunken log2 fold change” value was -0.402. As for RRIRHRPPRLPRPRPRPNSFPRP, the figure is 0.00867. As for RRIRPRPPRLPRPRPRPGETPRP, the figure is 0.117; as for RRIRYRPPRLPRPRPRPVPCPRP, -0.226; as for RRIRSRPPRLPRPRPRPRKSPRP, 0.139. As for RRIRARPPRLPRPRPRPEYPPRP, the figure is 0.0126; as for RRIRPRPPRLPRPRPRPLKFPRP, -0.368. As for RRIRSRPPRLPRPRPRPAQEPRP, the “shrunken log2 fold change” value was determined as 0.0123. The value for RRIRSRPPRLPRPRPRPFHLPRP was -0.321; that for RRIRARPPRLPRPRPRPWEDPRP was -0.015; that for RRIRGRPPRLPRPRPRPKSGPRP was 0.707. As for RRIRFRPPRLPRPRPRPFYKPRP, the figure is -0.311; as for RRIRGRPPRLPRPRPRPYLYPRP, -0.215.

RRIRVRPPRLPRPRPRPMVEPRP: the “shrunken log2 fold change” value was 0.303. Turning to RRIRVRPPRLPRPRPRPNEEPRP, the “shrunken log2 fold change” value was -0.00544. The value for RRIRKRPPRLPRPRPRPHDNPRP was 0.029; that for RRIRHRPPRLPRPRPRPWIMPRP was -0.597.

In the case of RRIRNRPPRLPRPRPRPPCFPRP, the “shrunken log2 fold change” value was -0.00581.
